Results reported in patent US20160347831A1 (F HOFFMAN LA ROCHE, published 2016).
Values belong to the binder of their own block, whether it stands above or below them.

B1: VHH R3VQ (VHH)
VHH: EVQLQASGGGLVQTGDSLRLSCADSGSTFRNYNIGWFRQTPGQAREFVAAVSRTGISTHVADSLQGRFTISRDNAKNTVYLQMNSLKPEDTAVYSCAAGRPGVGAVNRAMDYDYWGQGTQVTVSS
notes: Expressed with a His tag or a Strep tag; also called R3VQ(His)-NH2 1; R3VQ-NH2 1; not shown: 6-Histidine tag (pET23) or Strep tag (pASK IBA2) from the vector

Tests used:
A-beta 42 peptide (Aβ42) = target: T1, A-beta 42 peptide (Aβ42) (human); test: competition ELISA in solution (Friguet method)
T1 construct: Synthetic peptide (Bachem); incubated to give the fibrillar form for immunisation; also called Aβ1-42; fibrillar synthetic Aβ42 peptide
Procedure: (§1) The binding affinity of VHHs was determined as previously described (Friguet B. et al., 1985, Immunol Methods, 77:305-19). Briefly, various concentrations of Aβ peptides (A13 fragments 1-16, 10-20, 15-25, 22-35 and 29-40) were incubated in solution overnight at 4° C. with a known quantity of VHH until equilibrium was reached. The VHH concentration used was determined by preliminary ELISA calibrations. Each mixture (100 μl) was transferred to a well of a microtiter plate previously coated with antigen and was incubated for 20 min at 4° C. The plates were washed with buffer 0.1% Tween 20 in PBS and bound VHHs were detected by adding beta-galactosidase-conjugated goat anti-rabbit Igs (Biosys, Compiegne, France) and 4-methylumbelliferyl […] (Sigma). Fluorescence was read (Fluoroskan, Labsystem, Finland) at 460 nm, after excitation at 355 nm. KD was estimated from the slope of the regression curve obtained by plotting the reciprocal of the fraction of bound antibody versus the reciprocal of the molar concentration of antigen.

Aβ fragment 29-40 = target: T2, Aβ fragment 29-40 (human); test: competition ELISA with soluble Aβ fragments
T2 peptide: GAIIGLMVGGVV
Procedure: as §1

Aβ fragment 1-16 = target: T3, Aβ fragment 1-16 (human); test: competition ELISA with soluble Aβ fragments
T3 construct: also called Aβ1-16; Aβ16
T3 peptide: DAEFRHDSGYEVHHQK
Procedure: as §1

A-beta 40 (Aβ40) = target: T4, A-beta 40 (Aβ40) (human); test: ELISA on biotinylated Aβ40 (or Aβ42)
T4 construct: ELISA methods say 'A-beta 40 or A-beta 42 (preferably A-beta 40)'; also called Aβ1-40; biotinylated A-beta 40

VHH R3VQ = target: B1; test: competition ELISA, soluble Aβ fragment against antigen-coated plate
Procedure: as §1

T4 sequence (peptide, as listed by the source): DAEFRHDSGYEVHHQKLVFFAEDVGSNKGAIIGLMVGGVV
T1 sequence (peptide, as listed by the source): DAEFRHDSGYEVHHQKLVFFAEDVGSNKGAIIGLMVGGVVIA

Binder: B1
- Kd (A-beta 42 peptide (Aβ42)): 17 nM
- binding result (Aβ fragment 29-40): no binding
- binding result (Aβ fragment 1-16): no binding

- binding in ELISA compared to the original VHH 1 (A-beta 40 (Aβ40)): ~10%
B2: R3VQ(His)-N-(DOTA/Gd) conjugate 2c (VHH)
VHH: EVQLQASGGGLVQTGDSLRLSCADSGSTFRNYNIGWFRQTPGQAREFVAAVSRTGISTHVADSLQGRFTISRDNAKNTVYLQMNSLKPEDTAVYSCAAGRPGVGAVNRAMDYDYWGQGTQVTVSS
modifications: DOTA/Gd randomly distributed on lysine residues; average Gd/protein (1) 2 (3)
notes: Non-site-specific conjugate; not shown: 6-Histidine tag from pET23

- binding in ELISA compared to the original VHH 1 (A-beta 40 (Aβ40)): ~10%
B3: R3VQ(His)-N-(DOTA/Gd) conjugate 2d (VHH)
VHH: EVQLQASGGGLVQTGDSLRLSCADSGSTFRNYNIGWFRQTPGQAREFVAAVSRTGISTHVADSLQGRFTISRDNAKNTVYLQMNSLKPEDTAVYSCAAGRPGVGAVNRAMDYDYWGQGTQVTVSS
modifications: DOTA/Gd randomly distributed on lysine residues; average Gd/protein (1) 2 (3)
notes: as for B2

- IC50 (VHH R3VQ): 16 nM
B4: Aβ fragment 16-35 (peptide)
peptide: KLVFFAEDVGSNKGAIIGLM
notes: this fragment is not in the list of fragments tested (1-16, 10-20, 15-25, 22-35, 29-40); also called AP 16-35
